“Also recorded” adds a separate entry of the source.
How the values were obtained:
[1] = system: proteolytic activity in colon mucosa; test: proteolytic activity in colon mucosal biopsy samples of DMH-treated rats (MCA substrates); format: in vivo, rat; settings: for levels of proteolytic activity in colon mucosa of DMH-exposed animals: one month after last DMH dose, 0.1% dietary BBIC, FIG. 5; for Protease Activity/μg protein, Glt-Gly-Arg-MCA, Mean / Protease Activity/μg protein, Boc-Val-Leu-Lys-MCA, Mean / Protease Activity/μg protein, Boc-Val-Pro-Arg-MCA, Mean: rat colon biopsy one month after last DMH injection (total 80 mg/kg), 0.1% dietary inhibitor where given, 1 animal, 3 samples; for Protease Activity/μg protein, Glt-Gly-Arg-MCA, Mean: control 1.21; for Protease Activity/μg protein, Boc-Val-Leu-Lys-MCA, Mean: control 3.07; for Protease Activity/μg protein, Boc-Val-Pro-Arg-MCA, Mean: control 15.97
Description: The levels of proteolytic activity were determined as following. Colon mucosal biopsy samples were thawed on ice and homogenized in ice-cold PBS in a sterile teflon-glass homogenizer. The level of proteolytic activity was measured by incubating aliquots of sample in 0.1M Tris (pH 7.5)-5 mM CaC12, with each of the following synthetic substrates: Boc-Val-Pro-Arg-MCA; Boc-Val-Leu-Lys-MCA; and Glt-Gly-Arg-MCA (Peninsula Laboratories, Inc., Belmont, Calif.). These substrates were selected since it is known that the proteolytic activity cleaving these substrates is affected by BBI. After a 2 hour incubation at 37° C., the reaction was terminated by dilution with 1.8 ml distilled H2 O. Release of the fluorescent reporter group, amino-methyl coumarin, was determined spectrophotometrically at excitation and emission wavelengths of 380 and 460 nm, respectively. […] Data were standardized on the basis of protein content and expressed as proteolytic activity/μg protein.
In these studies, animals were untreated or treated twice weekly for three weeks with DMH. […] One group of treated animals was also exposed to 0.1% dietary BBIC during and after the DMH injection period. Animals were killed one month after the last DMH injection was given. Colon biopsy samples were obtained and proteolytic activity levels were determined as described for the human mucosal biopsy samples.

[2] = system: TPA-activated polymorphonuclear leukocytes (PMNs); settings: TPA-activated human PMNs (Frenkel et al.); cited from earlier work
[3] = system: DMH-induced colon and liver carcinogenesis; settings: 0.5% of the diet or less (St. Clair et al.); cited from earlier work
trypsin = test: gelatin zymogram, trypsin control lanes; format: biochemical; settings: 10 μg/ml; 5 ng trypsin; lanes 4 and 6 vs lane 1
Description: BBI or BBIC (at 10 μg/ml) was added to some of the biopsy sample homogenates and protease activity was analyzed on gelatin zymograms. The same rat colon sample from a 14 day DNBS/ethanol treated rat was used for the protease/zymogram analyses. The gel was run at 200 V for 40 minutes and was then cut into pieces. Each gel/column was treated as follows: 1) Control-contained 5 ng trypsin; 2) UC sample incubated in Tris at pH 8.0; 3) UC sample incubated in Tris at pH 8.0 with BBI added to achieve a final concentration of 10 μg/ml; 4) Control-contained 5 ng trypsin with BBI added to achieve a final concentration of 10 μg/ml; 5) UC sample incubated in Tris at pH 8.0 with BBIC added to achieve a final concentration of 10 μg/ml; 6) Control-contained 5 ng trypsin with BBIC added to achieve a final concentration of 10 μg/ml.
Twelve percent sodium diodecyl sulfate (SDS) polyacrylamide gels of 0.75 mm thickness were prepared containing 0.1% gelatin. A 2% gelatin stock was prepared in advance by dissolving gelatin in warm distilled water. Samples were placed in the gel wells in standard SDS-gel-loading buffer that contained 0.1% SDS but lacked beta-mercaptoethanol. They were not boiled prior to loading. The gels were run at 200 V for 40 minutes in a Bio-Rad Mini Protean II apparatus and then soaked in distilled water containing 2% Triton X-100 on a gyrorotary shaker for 15 minutes at 20° C. […]

[4] = system: cells of patients with Bloom's syndrome; settings: Kennedy et al., 1984; cited from earlier work
C3H10T1/2 cells = settings: Yavelow et al., 1985; cited from earlier work

Molecule: CNNC [DMH, dimethylhydrazine, reference compound]
- levels of proteolytic activity in colon mucosa of DMH-exposed animals [1]: highly significant elevation
- Protease Activity/μg protein, Glt-Gly-Arg-MCA, Mean [1]: 6.15 RFU/hr/Ag protein
- Protease Activity/μg protein, Boc-Val-Leu-Lys-MCA, Mean [1]: 10.15 RFU/hr/Ag protein
- Protease Activity/μg protein, Boc-Val-Pro-Arg-MCA, Mean [1]: 43.43 RFU/hr/Ag protein

B1: SBTI: soybean (Kunitz) trypsin inhibitor (protein, UniProt P01070 25-205, looked up)
Trypsin inhibitor A: DFVLDNEGNPLENGGTYYILSDITAFGGIRAAPTGNERCPLTVVQSRNELDKGIGTIISSPYRIRFIAEGHPLSLKFDSFAVIMLCVGIPTEWSVVEDLPEGPAVKIGENKDAMDGWFRLERVSDDEFNNYKLVFCPQQAEDDKCGDIGISIDHDDGTRRLVVSKNKPLVVQFQKLDKESL
- order of activity, inhibition of H2O2 formation [2]: PtI-1≥PCI-2>PtI-2>COI>BBI>TOOI>LBI>SBTI

B2: BBI: protease inhibitor derived from soybeans; 71 amino acid chain with 7 disulfide bonds, molecular weight approximately 8000 (protein, UniProt P01055 40-110, looked up)
Bowman-Birk type proteinase …: DDESSKPCCDQCACTKSNPPQCRCSDMRLNSCHSACKSCICALSYPAQCFCVDITDFCYEPCKPSEDDKEN
- effect upon the health of the mice [3]: no adverse effect upon the health of the mice
- inhibition of proteolytic activity of trypsin (trypsin): effectively inhibit the proteolytic activity of trypsin
- levels of proteolytic activity in colon mucosa of DMH-exposed animals [1]: not significantly different from control animals; also recorded: reduction in levels of these proteolytic activities
- Protease Activity/μg protein, Glt-Gly-Arg-MCA, Mean [1]: 0.81 RFU/hr/Ag protein
- Protease Activity/μg protein, Boc-Val-Leu-Lys-MCA, Mean [1]: 1.96 RFU/hr/Ag protein
- Protease Activity/μg protein, Boc-Val-Pro-Arg-MCA, Mean [1]: 22.22 RFU/hr/Ag protein
- levels of chromosome abnormalities [4]: reduce the levels of chromosome abnormalities
- radiation induced transformation in C3H10T1/2 cells (C3H10T1/2 cells): suppresses radiation induced transformation in C3H10T1/2 cells
- order of activity, inhibition of H2O2 formation [2]: PtI-1≥PCI-2>PtI-2>COI>BBI>TOOI>LBI>SBTI

B3: COI: chicken ovoinhibitor (protein, UniProt P10184 1-517, looked up)
Ovoinhibitor: MTDWVLHHKVGPLDMTTRYIFPLLPLPFLPHSESKRAVCAPRCSAMRTARQFVQVALALCCFADIAFGIEVNCSLYASGIGKDGTSWVACPRNLKPVCGTDGSTYSNECGICLYNREHGANVEKEYDGECRPKHVTIDCSPYLQVVRDGNTMVACPRILKPVCGSDSFTYDNECGICAYNAEHHTNISKLHDGECKLEIGSVDCSKYPSTVSKDGRTLVACPRILSPVCGTDGFTYDNECGICAHNAEQRTHVSKKHDGKCRQEIPEIDCDQYPTRKTTGGKLLVRCPRILLPVCGTDGFTYDNECGICAHNAQHGTEVKKSHDGRCKERSTPLDCTQYLSNTQNGEAITACPFILQEVCGTDGVTYSNDCSLCAHNIELGTSVAKKHDGRCREEVPELDCSKYKTSTLKDGRQVVACTMIYDPVCATNGVTYASECTLCAHNLEQRTNLGKRKNGRCEEDITKEHCREFQKVSPICTMEYVPHCGSDGVTYSNRCFFCNAYVQSNRTLNLVSMAAC
- order of activity, inhibition of H2O2 formation [2]: PtI-1≥PCI-2>PtI-2>COI>BBI>TOOI>LBI>SBTI

From patent US5614198A, “Bowman-Birk Inhibitor compositions for treatment of inflammatory disease” (The Trustees of the University of Pennsylvania, priority 1995, dated 1997)
